The term Ki denotes a measure of affinity in units of concentration, obtained from inhibition or displacement.

The values below come from PMC7782793, “Hydroxamic acid-modified peptide microarrays for profiling isozyme-selective interactions and inhibition of histone deacetylases” (Nature Communications, 2021).

Starred links: 1 amine or outer side, 2 acyl side, 3 side chain; linkers in the order of their positions; H or OH if unused. Non-standard residues stand in square brackets, D forms with d. Primed or numbered codes have the meaning given here. No end group written: not given here. Asuha″ = L-2-amino-8-(hydroxyamino)-8-oxooctanoic acid, O=C(CCCCC[C@H](N[*:1])C(=O)[*:2])NO

The target in the assay is T1, HDAC6 (histone deacetylase 6) (human, UniProt Q9UBN7 1-1215).
T1 construct: HDAC6, human, full length; source: bought: BPS Bioscience, cat. #50056
T1 sequence (looked up): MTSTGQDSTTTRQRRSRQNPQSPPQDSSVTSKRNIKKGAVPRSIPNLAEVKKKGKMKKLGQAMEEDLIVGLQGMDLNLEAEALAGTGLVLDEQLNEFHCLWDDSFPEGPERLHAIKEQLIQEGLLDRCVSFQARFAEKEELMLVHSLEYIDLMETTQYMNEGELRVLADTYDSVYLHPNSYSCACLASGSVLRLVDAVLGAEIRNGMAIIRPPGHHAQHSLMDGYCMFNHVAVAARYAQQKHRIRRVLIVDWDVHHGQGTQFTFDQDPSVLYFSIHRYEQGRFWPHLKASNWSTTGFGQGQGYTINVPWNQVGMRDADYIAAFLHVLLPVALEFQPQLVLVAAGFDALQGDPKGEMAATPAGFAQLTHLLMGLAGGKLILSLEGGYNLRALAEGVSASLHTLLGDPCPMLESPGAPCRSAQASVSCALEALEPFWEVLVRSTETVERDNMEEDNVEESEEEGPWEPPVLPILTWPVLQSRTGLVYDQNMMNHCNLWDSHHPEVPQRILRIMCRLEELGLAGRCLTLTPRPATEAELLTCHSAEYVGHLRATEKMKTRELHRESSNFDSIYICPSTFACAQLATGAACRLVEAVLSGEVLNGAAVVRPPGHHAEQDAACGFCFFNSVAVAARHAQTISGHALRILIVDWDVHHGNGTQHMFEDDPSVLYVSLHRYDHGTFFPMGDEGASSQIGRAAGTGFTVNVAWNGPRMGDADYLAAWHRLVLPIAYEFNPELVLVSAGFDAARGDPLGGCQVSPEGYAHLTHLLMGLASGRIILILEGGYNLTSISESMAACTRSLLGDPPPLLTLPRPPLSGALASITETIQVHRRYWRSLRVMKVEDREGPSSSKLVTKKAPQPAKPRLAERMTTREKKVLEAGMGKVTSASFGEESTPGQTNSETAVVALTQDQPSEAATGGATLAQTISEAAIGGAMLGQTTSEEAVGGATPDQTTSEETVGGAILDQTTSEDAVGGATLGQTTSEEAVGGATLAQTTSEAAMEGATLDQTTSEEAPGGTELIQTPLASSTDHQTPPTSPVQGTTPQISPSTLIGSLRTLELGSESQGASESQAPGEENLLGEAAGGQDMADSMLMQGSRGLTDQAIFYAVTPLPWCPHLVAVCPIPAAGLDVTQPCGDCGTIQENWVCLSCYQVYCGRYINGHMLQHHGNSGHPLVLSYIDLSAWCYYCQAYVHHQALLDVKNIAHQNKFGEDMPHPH
As to the kind of experiment: fluorogenic enzyme inhibition assay; peptide in 5-fold dilution series with enzyme and fluorogenic substrate (Ac-Leu-Gly-Lys(Ac)-AMC or Ac-Leu-Gly-Lys(Tfa)-AMC), HEPES buffer pH 7.4, 30 min, 37 °C, trypsin development; Ki by the Cheng-Prusoff equation. Conditions: both partners purified.

KGGKGLG[Asuha″]GGAKRHR [peptide 1a (parent H4K12 Asuha peptide)] showed a Ki of 5.31 ± 0.03 nM.
